{
  "source": "paper PMC6308316",
  "about": "“Characterization of a Putrescine Transaminase From Pseudomonas putida and its Application to the Synthesis of Benzylamine Derivatives” (Frontiers in Bioengineering and Biotechnology, 2018)",
  "proteins": {"B1": {"name": "putrescine transaminase from Pseudomonas putida (Pp-SpuC) (enzyme)", "chain": "MSTNNPQTREWQTLSGEHHLAPFSDYKQLKEKGPRIITKAQGVHLWDSEGHKILDGMAGLWCVAVGYGREELVQAAEKQMRELPYYNLFFQTAHPPALELAKAITDVAPEGMTHVFFTGSGSEGNDTVLRMVRHYWALKGKPHKQTIIGRINGYHGSTFAGACLGGMSGMHEQGGLPIPGIVHIPQPYWFGEGGDMTPDAFGIWAAEQLEKKILEVGEDNVAAFIAEPIQGAGGVIIPPETYWPKVKEILAKYDILFVADEVICGFGRTGEWFGSDYYDLKPDLMTIAKGLTSGYIPMGGVIVRDKVAKVISEGGDFNHGFTYSGHPVAAAVGLENLRILRDEQIVEKARTEAAPYLQKRLRELQDHPLVGEVRGLGMLGAIELVKDKATRSRYEGKGVGMICRTFCFENGLIMRAVGDTMIIAPPLVISHAEIDELVEKARKCLDLTLEAIR", "notes": "putrescine transaminase SpuC of Pseudomonas putida (strain NBRC 14161 bought from NCIMB), cloned in pET-28b as in Galman et al., 2017; in the crystal residues 1-33, 154-179 and 313-324 are disordered; No cleavage of the tag is told; Crystallised in the apo form (no PLP seen); also called putrescine transaminase spuC; source: E. coli BL21 (DE3), pET28b, purified (Ni-NTA, ion exchange on …)"}},
  "biological_target": "the molecule itself",
  "assay": "crystal structure; apo Pp-SpuC; crystals in 0.2 M MgCl2, 0.1 M Bis-Tris pH 6.5, 25% PEG3350, 20°C; two monomers in the asymmetric unit",
  "data": [
    {"protein": "B1", "values": [
      {"measurement": "stoichiometry N", "result": 2}
    ]}
  ]
}
